Data from the supplement of paper PMC10266784.

B1: library; numbered along this chain (parent)
chain: MAAAAAAAAEQQSSNGPVKKSMREKAVERRSVNKEHNSNFKAGYIPIDEDRLHKTGLRGRKGNLAICVIILLFILAVINLIITLVIWAVIRIGPNGCDSMEFHESGLLRFKQVSDMGVIHPLYKSTVGGRRNENLVITGNNQPIVFQQGTTKLSVENNKTSITSDIGMQFFDPRTQNILFSTDYETHEFHLPSGVKSLNVQKASTERITSNATSDLNIKVDGRAIVRGNEGVFIMGKTIEFHMGGNMELKAENSIILNGSVMVSTTRLPSSSSGDQLGSGDWVRYKLCMCADGTLFKVQVTSQNMGCQISDNPCGNTH

Variants of: B1
Assay: SGCB cell-surface expression functional score (HA stain, bin4 vs bin1, normalised to synonymous) (log10 ratio); higher = more cell-surface SGCB (functional)
How it was run: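 Human beta-sarcoglycan, tagged with HA and fused to YFP, was built into codon-saturation libraries and delivered by lentivirus at MOI <0.1 into HEK293 cells that stably express alpha-, gamma- and delta-sarcoglycan. After 72 hours, YFP-positive cells were sorted and grown for 5–7 days, then stained on ice with Alexa Fluor 647 anti-HA, fixed, sorted into four 5% intensity bins and amplicon-sequenced. Each variant's functional score is the log ratio of its frequency in the highest bin to that in the lowest bin, taken as the median across codons and transductions. Transductions were done in duplicate, and synonymous variants were scaled per section to mean 0, SD 0.5.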

SGCB cell-surface expression functional score (log10): each site, then its substitutions
H103: F -0.14, S 0.06, E -0.33, A 0.32, Q 0.36, V 0.29, G 0.07, M -0.23, P -0.42, K -0.02, L 0.33, I -0.36, Y -0.3, W 0.06, R 0.14, C -0.1, T 0.65, N 0.13, D 0
P94: N -0.88, W 0.26, Q 0.21, S -0.11, R -0.65, T -0.07, Y 0.29, V -0.24
G106: C -1.9, K -0.63, D -0.65, S -0.78, A -0.24, I -1.82, F -1.86, V -1.47, P -1.85, W -0.87, Q -1.48, M -0.94, N -0.38, E -0.58, T -0.86, L -1.62, Y -1.15, R -0.35, H -0.43
F110: Y -0.99, L -0.53, K -0.57, W -1.08, S -1.18, T -1.1, C -1.22, I -0.31, H -0.19, E -1.42, N -0.99, D -1.65, V -0.47, R -1.05, P -1.35, Q -1.06, M -0.98, A -1.33, G -1.18
S99: I -0.54, R -1.61, N -0.77, A -0.01, K -1.57, P -0.38, W -0.35, F 0.86, V 0.15, C -0.72, D -1.16, E -1.96, L 0.18, M 0.21, Y 0.12, H -0.65, Q -2.34, T -0.4, G -0.07
K111: C 0.01, L -0.35, S -1.07, P -1.47, R -0.25, V -0.57, H -0.03, I -0.61, Y -0.7, Q -1, M -0.31, T -0.37, N -0.45, G -1.08, W 0.03, E -0.76, F -0.85, D -0.84, A -1.04
R109: L -0.1, G -0.81, Y -0.17, A -0.33, T 0.26, P -1.41, N -1.22, V 0.1, C -0.5, D -0.93, H -0.61, I -0.04, Q -0.31, E -0.02, S -0.09, F -0.2, M -0.41, K -0.59, W 0.09
L107: Y -0.27, I 0.27, F -0.29, G -0.26, E -1.14, R -0.36, D -0.74, W -0.39, C 0.24, A -0.67, T -0.34, N -0.13, M 0.24, V -0.21, P -0.47, H -0.67, Q 0, K -0.53, S -0.46
E101: S -0.39, W -1.04, D -0.49, C -1.14, I -0.3, F -0.8, V -0.43, P -1.78, N -1.22, L -0.35, Y -0.43, A -0.15, R -0.59, M -0.63, G -0.26, H -1.14, Q -0.15, K -0.77, T -0.54
G96: D -2.13, F -2.5, C -1.66, V -1.95, N -2.04, L -2.08, Q -2.14, M -1.68, Y -2.29, K -2.21, P -1.62, R -1.51, T -1.72, I -1.54, E -1.89, H -1.77, S -1.81, W -0.61, A -1.24
M100: G -1.04, A -1.33, N -2.37, H -1.39, S -2.02, V -0.03, K -2.02, F -0.46, Y -2.14, C -1.81, R -1.19, D -1.82, Q -1.26, T -1.55, I -0.14, P -2.03, W -1.82, E -1.92
D98: M 0.01, E -0.21, N -0.3, F -0.64, T 0.06, S 0.3, L 0.1, G -0.2, V -0.14, P -0.12, R -0.16, C -0.07, W -0.73, K -0.4, A 0.32, Y -0.66, Q -0.02, I -1, H 0.4
L108: D -1.53, N -2.59, K -1.85, W -0.215, A -0.07, Y -1.74, Q -1.27, M 0.07, S -0.5, I 0.03, G -0.9, P -1.13, H -0.95, T 0, R -1.09, E -1.58, V -0.08, F -1.87, C 0.01
C97: S -0.18, I 0.31, Q -1.14, F -1.5, M -0.29, E -1.87, G -1.91, A -0.14, P -0.47, W -1.46, N -1.16, R -1.75, Y -1.89, H -2.29, K -1.3, L 0.37, T -0.03, V 0.16, D -2.33
S105: L -0.66, F -0.75, M -0.33, Y 0.11, A -0.09, C -0.21, P -1.03, Q -0.11, R -0.4, K -0.5, T -0.09, W 0.26, I -0.75, N -0.63, D 0.04, H 0, V -0.62, E -0.29, G -0.15
F102: R -1.14, S -1.18, G -0.51, Q -1.39, I -1.26, L -0.5, D -0.88, V -1.57, E -1.93, T -1.16, Y -1.16, W -0.12, H 0.01, K -1.02, A -1.01, C -1.3, P -1.4, N -1.53, M -0.45
Q112: A -0.21, C -0.81, E -0.38, D -0.16
N95: D -0.24, M 0.68, Y 0.15, I -0.83, K 0.16, R -0.09, Q -0.12, P -1.26, H -1.18, W 0.34, C -0.17, G 0.21, V -0.38, L -0.06, A 0.01, T -0.1, F 0.3, S 0.16, E 0.05
E104: W -0.09, N -0.11, P 0.47, S 0.39, Y 0.03, L -0.18, M 0.11, Q 0.18, D 0.17, V 0, G -0.1, T 0.51, A 0.22, I 0.01, F -0.24, K 0.13, C 0.35, H 0.28, R 0.26
